In patent US20100087363A1 (YEDA RESEARCH AND DEVELOPMENT, published 2010) one finds Kd data, which are given here for one molecule.

The Kd is the concentration at which binding is half-saturated.

The target of the assay is T1, LDL (low density lipoprotein; Biomedical Technologies, Inc) (UniProt P04114 28-4563).
T1 construct: LDL is a lipoprotein particle (avg. mass 2.5x10^6 Da) of lipid and protein, not a pure protein
As to the kind of experiment: size exclusion chromatography (Superose 6) of a pre-incubated LDL + sLDLR mix (7 micromolar each); ratio of bound and free sLDLR peaks by sLDLR ELISA, assuming 5-fold dilution. How it is done: Therefore, we employed another method for testing the binding of sLDLR to LDL. For this purpose, we incubated for 1 h at 37° C. a solution of LDL (Biomedical technologies, Inc, Ma, USA) and r-hsLDLR of Example 5 at a final concentration of 7 micromolar each in PBS plus 10 micromolar Calcium Chloride (PBS+). An aliquot of 0.1 ml was subjected to size exclusion chromatography on a Superose 6 HR 10/30 column (GE Healthcare Life Sciences Cat. No 17-5172-01). The column was eluted with PBS+ at a flow rate of 0.4 ml/min and fractions of 0.5 ml were collected. The concentration of r-hsLDLR was determined by a specific ELISA as follows:
Mab #28 anti-human sLDLR (5 microgram/ml in PBS; corresponding to Mab from hybridoma clone 28 deposited at the CNCM under No. 1-2391-U.S. Pat. No. 6,849,720) was used for coating of 96-well ELISA plates at 0.1 ml/well overnight at room temperature. The plates were then washed ×3 with PBS containing 0.05% Tween-20 and then blocked by 0.3 ml blocking buffer (1% bovine serum albumin, 5% sucrose, 0.05% sodium azide in PBS). The plates were then washed 3× with PBS. […] The plated were then washed 3× with reagent diluent, a substrate solution (0.1 ml TMB/E, Chemicon) is added to each well and the plates were either read within 5 min at 630 nm or stopped with H₂SO₄ (2 N 0.05 ml) and read at 450 nm.
On the technique in general: In gel filtration, larger molecules generally elute earlier.

B1: recombinant human soluble LDL receptor, amino acid residues 25-352 of the LDLR precursor, expressed in CHO cells (receptor)
chain: not shown
modifications: N-glycosylated at Asn 272 of the LDLR precursor
notes: range 25-352; Produced in DHFR-deficient CHO cells (InterPharm Laboratories); also called sLDLR; r-hsLDLR
For B1, the Kd is around 10 nM.
